From the supplement of paper PMC11246515
± gives the standard deviation of the averaged measurements.

Assay: total protein half-life in vivo (active degradation + dilution); higher = more stable protein
[1] = E. coli NCM3722 delta-clpP delta-lon delta-hslV, growth: N-lim chemostat, doubling time 6 h
[2] = E. coli NCM3722 delta-clpP, growth: N-lim chemostat, doubling time 6 h
[3] = E. coli NCM3722 delta-hslV, growth: N-lim chemostat, doubling time 6 h
[4] = E. coli NCM3722 delta-lon, growth: N-lim chemostat, doubling time 6 h
[5] = E. coli NCM3722 delta-smpB, growth: N-lim chemostat, doubling time 6 h
[6] = wild type E. coli NCM3722, growth: C-lim chemostat, doubling time 3 h
[7] = wild type E. coli NCM3722, growth: C-lim chemostat, doubling time 6 h
[8] = wild type E. coli NCM3722, growth: C-lim chemostat, doubling time 12 h
[9] = wild type E. coli NCM3722, growth: N-lim chemostat, doubling time 6 h
[10] = wild type E. coli NCM3722, growth: N-lim chemostat, doubling time 12 h
[11] = wild type E. coli NCM3722, growth: P-lim chemostat, doubling time 6 h
[12] = wild type E. coli NCM3722, growth: P-lim chemostat, doubling time 12 h

| Sequence | total protein half-life in vivo [1] [h] | total protein half-life in vivo [2] [h] | total protein half-life in vivo [3] [h] | total protein half-life in vivo [4] [h] | total protein half-life in vivo [5] [h] | total protein half-life in vivo [6] [h] | total protein half-life in vivo [7] [h] | total protein half-life in vivo [8] [h] | total protein half-life in vivo [9] [h] | total protein half-life in vivo [10] [h] | total protein half-life in vivo [11] [h] | total protein half-life in vivo [12] [h] |
| --- | --- | --- | --- | --- | --- | --- | --- | --- | --- | --- | --- | --- |
| MNTLRIGLVSISDRASSGVYQDKGIPALEEWLTSALTTPFELETRLIPDEQAIIEQTLCELVDEMSCHLVLTTGGTGPARRDVTPDATLAVADREMPGFGEQMRQISLHFVPTAILSRQVGVIRKQALILNLPGQPKSIKETLEGVKDAEGNVVVHGIFASVPYCIQLLEGPYVETAPEVVAAFRPKSARRDVSE [P0AF03] | 4.79 ± 0.77 | 4.24 ± 0.53 | 4.594 ± 0.04 | 5.05 ± 0.59 | 4.82 ± 0.54 | 2.8 ± 0.21 | 5.83 ± 0.49 | 9.32 ± 0.82 | 4.61 ± 0.27 | 8.09 ± 0.46 | 5.41 ± 0.4 | 11.3 ± 0.16 |
| MNTRWQQAGQKVKPGFKLAGKLVLLTALRYGPAGVAGWAIKSVARRPLKMLLAVALEPLLSRAANKLAQRYKR [P0AFV8] | 3.32 ± 0.39 | – | – | – | – | – | – | – | – | – | – | – |
| MNTSHVRVVTHMCGFLVWLYSLSMLPPMVVALFYKEKSLFVFFITFVIFFCIGGGAWYTTKKSGIQLRTRDGFIIIVMFWILFSVISAFPLWIDSELNLTFIDALFEGVSGITTTGATVIDDVSSLPRAYLYYRSQLNFIGGLGVIVLAVAVLPLLGIGGAKLYQSEMPGPFKDDKLTPRLADTSRTLWITYSLLGIACIVCYRLAGMPLFDAICHGISTVSLGGFSTHSESIGYFNNYLVELVAGSFSLLSAFNFTLWYIVISRKTIKPLIRDIELRFFLLIALGVIIVTSFQVWHIGMYDLHGSFIHSFFLASSMLTDNGLATQDYASWPTHTIVFLLLSSFFGGCIGSTCGGIKSLRFLILFKQSKHEINQLSHPRALLSVNVGGKIVTDRVMRSVWSFFFLYTLFTVFFILVLNGMGYDFLTSFATVAACINNMGLGFGATASSFGVLNDIAKCLMCIAMILGRLEIYPVIILFSGFFWRS | – | > 8 | 5.64 ± 0.43 | – | 6.77 | > 4 | – | 13.5 | – | > 16 | > 8 | – |
| MNTTPSQRLGFLHHIRLVPLFACILGGILVLFALSSALAGYFLWQADRDQRDVTAEIEIRTGLANSSDFLRSARINMIQAGAASRIAEMEAMKRNIAQAESEIKQSQQGYRAYQNRPVKTPADEALDTELNQRFQAYITGMQPMLKYAKNGMFEAIINHESEQIRPLDNAYTDILNKAVKIRSTRANQLAELAHQRTRLGGMFMIGAFVLALVMTLITFMVLRRIVIRPLQHAAQRIEKIASGDLTMNDEPAGRNEIGRLSRHLQQMQHSLGMTVGTVRQGAEEIYRGTSEISAGNADLSSRTEEQAAAIEQTAASMEQLTATVKQNADNAHHASKLAQEASIKASDGGQTVSGVVKTMGAISTSSKKISEITAVINSIAFQTNILALNAAVEAARAGEQGRGFAVVASEVRTLASRSAQAAKEIEGLISESVRLIDLGSDEVATAGKTMSTIVDAVASVTHIMQEIAAASDEQSRGITQVSQAISEMDKVTQQNASLVEEASAAAVSLEEQAARLTEAVDVFRLHKHSVSAEPRGAGEPVSFATV | – | – | – | – | – | 2.39 ± 0.0043 | 4.42 ± 0.23 | 6.36 ± 0.25 | – | – | – | – |
| MNVIAILNHMGVYFKEEPIRELHRALERLNFQIVYPNDRDDLLKLIENNARLCGVIFDWDKYNLELCEEISKMNENLPLYAFANTYSTLDVSLNDLRLQISFFEYALGAAEDIANKIKQTTDEYINTILPPLTKALFKYVREGKYTFCTPGHMGGTAFQKSPVGSLFYDFFGPNTMKSDISISVSELGSLLDHSGPHKEAEQYIARVFNADRSYMVTNGTSTANKIVGMYSAPAGSTILIDRNCHKSLTHLMMMSDVTPIYFRPTRNAYGILGGIPQSEFQHATIAKRVKETPNATWPVHAVITNSTYDGLLYNTDFIKKTLDVKSIHFDSAWVPYTNFSPIYEGKCGMSGGRVEGKVIYETQSTHKLLAAFSQASMIHVKGDVNEETFNEAYMMHTTTSPHYGIVASTETAAAMMKGNAGKRLINGSIERAIKFRKEIKRLRTESDGWFFDVWQPDHIDTTECWPLRSDSTWHGFKNIDNEHMYLDPIKVTLLTPGMEKDGTMSDFGIPASIVAKYLDEHGIVVEKTGPYNLLFLFSIGIDKTKALSLLRALTDFKRAFDLNLRVKNMLPSLYREDPEFYENMRIQELAQNIHKLIVHHNLPDLMYRAFEVLPTMVMTPYAAFQKELHGMTEEVYLDEMVGRINANMILPYPPGVPLVMPGEMITEESRPVLEFLQMLCEIGAHYPGFETDIHGAYRQADGRYTVKVLKEESKK [P0A9H3] | – | 5.68 | – | – | – | – | – | – | – | – | – | 11.6 |
| MNVNFFVTCIGDALKSRMARDSVLLLEKLGCRVNFPEKQGCCGQPAINSGYIKEAIPGMKNLIAALEDNDDPIISPAGSCTYAVKSYPTYLADEPEWASRAAKVAARMQDLTSFIVNKLGVVDVGASLQGRAVYHPSCSLARKLGVKDEPLTLLKNVRGLELLTFAEQDTCCGFGGTFSVKMAEISGEMVKEKVAHLMEVRPEYLIGADVSCLLNISGRLQREGQKVKVMHIAEVLMSR | 4.88 ± 0.35 | 2.8 | 3.22 ± 0.43 | 4.91 | 3.17 ± 0.06 | 3.05 ± 0.46 | 4.67 ± 0.46 | 8.01 ± 0.23 | 4.38 ± 0.39 | 6.19 ± 1.3 | 4.49 | 8.05 ± 0.092 |
| MNVVILDTGCANLNSVKSAIARHGYEPKVSRDPDVVLLADKLFLPGVGTAQAAMDQVRERELFDLIKACTQPVLGICLGMQLLGRRSEESNGVDLLGIIDEDVPKMTDFGLPLPHMGWNRVYPQAGNRLFQGIEDGAYFYFVHSYAMPVNPWTIAQCNYGEPFTAAVQKDNFYGVQFHPERSGAAGAKLLKNFLEM | 5.66 ± 1.5 | 4.08 ± 0.64 | 4.08 ± 0.044 | 4.11 ± 0.85 | 4.11 ± 0.27 | 3.16 ± 0.23 | 5.31 ± 0.46 | 10.5 ± 0.7 | 4.46 ± 0.29 | 7.8 ± 1.1 | 5.78 ± 0.17 | 11.3 ± 0.22 |
| MNYQMITTDDALASLCEAVRAFPAIALDTEFVRTRTYYPQLGLIQLFDGEHLALIDPLGITDWSPLKAILRDPSITKFLHAGSEDLEVFLNVFGELPQPLIDTQILAAFCGRPMSWGFASMVEEYSGVTLDKSESRTDWLARPLTERQCEYAAADVWYLLPITAKLMVETEASGWLPAALDECRLMQMRRQEVVAPEDAWRDITNAWQLRTRQLACLQLLADWRLRKARERDLAVNFVVREEHLWSVARYMPGSLGELDSLGLSGSEIRFHGKTLLALVEKAQTLPEDALPQPMLNLMDMPGYRKAFKAIKSLITDVSETHKISAELLASRRQINQLLNWHWKLKPQNNLPELISGWRGELMAEALHNLLQEYPQ | 4.11 ± 0.93 | 4.41 ± 1.4 | 3.88 ± 0.32 | 4.79 ± 1.2 | 3.65 ± 0.37 | > 4 | 5.23 ± 0.24 | 10 ± 0.67 | 3.834 ± 0.0071 | 6.31 ± 1.4 | 5.82 ± 0.58 | 11.8 ± 1.5 |
| MPANARSHAVLTTESKVTIRGQTTIPAPVREALKLKPGQDSIHYEILPGGQVFMCRLGDEQEDHTMNAFLRFLDADIQNNPQKTRPFNIQQGKKLVAGMDVNIDDEIGDDE | 5.19 ± 0.069 | 2.83 ± 0.037 | 3.29 ± 0.22 | 2.97 ± 0.61 | 2.88 ± 0.047 | > 4 | 3.52 ± 0.75 | 5.13 ± 1.2 | 3.11 ± 0.63 | 5.02 ± 0.3 | 2.77 ± 0.39 | 5.24 ± 0.056 |
